Results taken from patent US20180111996A1 (Merck Sharp & Dohme, published 2018).
Substitutions are numbered along the chain they refer to. Names may count otherwise. Where two headings read alike, the source gives them in different places.

Legend:
[1] = molecular target: cynomolgous PD-1 (form in the kinetic assay not stated) (cynomolgus macaque); assay: kinetic analysis, format for cynomolgus PD-1 not stated
[2] = molecular target: T1, cynomolgus macaque PD-1 receptor on stably transfected CHO-K1 cells (cynomolgus macaque, UniProt B0LAJ3 25-288); assay: inhibition of ligand (PD-L1, PD-L2) binding to cynomolgous PD-1
T1 construct: also called cynomolgus PD-1; cynomolgous PD-1

hPD-1/Fc (R & D Systems) [3] = molecular target: T2, hPD-1/Fc (R & D Systems) (human, UniProt Q15116 25-167); assay: bio-light interferometry (ForteBio Octet), PD-1/Fc on biosensor
T2 construct: also called human PD-1/Fc; PD-1-Fc fusion protein; not shown: Fc part of the bought fusion protein, not described

[4] = molecular target: T3, human PD-1 (hPD-1) receptor expressed on cells (human, UniProt Q15116 25-288); assay: FMAT, blockade of hPD-L1/Fc binding to CHO-hPD-1 cells
T3 construct: whole, on cells; also called hPD-1/CHO; CHO-hPD1

[5] = molecular target: T3, human PD-1 (hPD-1) receptor expressed …; assay: CELISA on CHO-hPD-1 cells
[6] = molecular target: T3, human PD-1 (hPD-1) receptor expressed …; assay: FMAT, blockade of hPD-L2/Fc binding to CHO-hPD-1 cells
hPD-1/Fc (R & D Systems) [7] = molecular target: T2, hPD-1/Fc (R & D Systems); assay: protein ELISA, hPD-1/Fc immobilized
[8] = molecular target: T3, human PD-1 (hPD-1) receptor expressed …; assay: FMAT, blockade of labeled hPD-L2/Fc binding to CHO-hPD-1 cells
hPD-1/Fc (R & D Systems) [9] = molecular target: T2, hPD-1/Fc (R & D Systems); assay: protein ELISA, hPD-1/Fc immobilized; remark: listed apart in the source
[10] = molecular target: T3, human PD-1 (hPD-1) receptor expressed …; assay: CELISA on CHO-hPD-1 cells; remark: listed apart in the source
[11] = molecular target: T3, human PD-1 (hPD-1) receptor expressed …; assay: cell-based or functional assay
[12] = molecular target: T3, human PD-1 (hPD-1) receptor expressed …; assay: FACS, blockade of hPD-L1/Fc binding to CHO cells expressing human PD-1
[13] = molecular target: T3, human PD-1 (hPD-1) receptor expressed …; assay: FMAT, blockade of labeled hPD-L1/Fc binding to CHO-hPD-1 cells
hPD-1/Fc (R & D Systems) [14] = molecular target: T2, hPD-1/Fc (R & D Systems); assay: bio-light interferometry (ForteBio Octet), PD-1/Fc on biosensor; remark: listed apart in the source
[15] = molecular target: T3, human PD-1 (hPD-1) receptor expressed …; assay: FMAT competition on CHO-hPD-1 cells; blocked ligand: fluorescently labelled hPD-L2/Fc at a constant concentration
[16] = molecular target: T4, mouse PD-1 receptor on stably transfected CHO-K1 cells (mouse, UniProt Q02242 25-288); assay: CELISA and other assays on mouse PD-1 transfected CHO-K1 cells
T4 construct: whole, on cells
T4 sequence (looked up): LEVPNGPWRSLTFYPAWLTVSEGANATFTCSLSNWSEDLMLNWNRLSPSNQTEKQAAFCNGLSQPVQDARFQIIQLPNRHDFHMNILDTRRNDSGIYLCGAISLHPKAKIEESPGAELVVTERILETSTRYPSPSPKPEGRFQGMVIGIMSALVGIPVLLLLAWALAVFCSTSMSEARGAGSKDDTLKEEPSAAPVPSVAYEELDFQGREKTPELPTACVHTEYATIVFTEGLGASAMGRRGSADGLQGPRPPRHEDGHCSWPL

[17] = molecular target: T3, human PD-1 (hPD-1) receptor expressed …; assay: CELISA on CHO cells expressing human PD-1, 450/620 nm
[18] = molecular target: T1, cynomolgus macaque PD-1 receptor on …; assay: CELISA on cynomolgus PD-1 transfected CHO-K1 cells
[19] = molecular target: T3, human PD-1 (hPD-1) receptor expressed …; assay: FACS, blockade of hPD-L1/Fc binding to CHO cells expressing human PD-1; remark: listed apart in the source
hPD-1/Fc (R & D Systems) [20] = molecular target: T2, hPD-1/Fc (R & D Systems); assay: bio-light interferometry (ForteBio Octet); lower end tied to 09A by Table II
[21] = molecular target: T3, human PD-1 (hPD-1) receptor expressed …; assay: FMAT competition on CHO-hPD-1 cells; blocked ligand: fluorescently labelled hPD-L1/Fc at a constant concentration

T3 sequence (Q15116 25-288): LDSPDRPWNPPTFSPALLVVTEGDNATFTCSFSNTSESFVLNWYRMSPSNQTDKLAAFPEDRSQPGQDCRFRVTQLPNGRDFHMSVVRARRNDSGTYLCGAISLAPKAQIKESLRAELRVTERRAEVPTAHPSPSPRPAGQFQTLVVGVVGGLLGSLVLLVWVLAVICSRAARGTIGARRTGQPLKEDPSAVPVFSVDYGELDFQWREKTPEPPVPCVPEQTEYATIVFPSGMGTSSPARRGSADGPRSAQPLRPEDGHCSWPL
T1 sequence (B0LAJ3 entry or part of it limits assumed): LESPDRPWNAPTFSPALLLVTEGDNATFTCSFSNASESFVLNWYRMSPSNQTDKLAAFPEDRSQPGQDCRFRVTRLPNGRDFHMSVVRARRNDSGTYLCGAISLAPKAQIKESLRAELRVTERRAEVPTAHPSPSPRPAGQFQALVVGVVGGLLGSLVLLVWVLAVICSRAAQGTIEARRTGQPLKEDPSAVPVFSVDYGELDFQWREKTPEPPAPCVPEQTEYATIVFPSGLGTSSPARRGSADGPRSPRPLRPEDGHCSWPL
T2 sequence (Q15116 25-167 limits assumed): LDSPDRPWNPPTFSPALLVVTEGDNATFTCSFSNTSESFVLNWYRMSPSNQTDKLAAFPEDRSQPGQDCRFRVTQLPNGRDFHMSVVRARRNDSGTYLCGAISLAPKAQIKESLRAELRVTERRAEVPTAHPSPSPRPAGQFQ

B1: h409A11 (antibody, human IgG4 S228P, kappa, V domains shown)
VH: QVQLVQSGVEVKKPGASVKVSCKASGYTFTNYYMYWVRQAPGQGLEWMGGINPSNGGTNFNEKFKNRVTLTTDSSTTTAYMELKSLQFDDTAVYYCARRDYRFDMGFDYWGQGTTVTVSS
VL: EIVLTQSPATLSLSPGERATLSCRASKGVSTSGYSYLHWYQQKPGQAPRLLIYLASYLESGVPARFSGSGSGTDFTLTISSLEPEDFAVYYCQHSRDLPLTFGGGTKVEIKR
notes: also called humanized IgG4 version of 09A antibody (409A-H + K09A-L-11)
Kd [1]: < 0.12 nM | IC50 [2]: < 1 nM

B2: h409A16 (antibody, human IgG4 S228P, kappa, V domains shown)
VH: B1 VH
VL: EIVLTQSPLSLPVTPGEPASISCRASKGVSTSGYSYLHWYLQKPGQSPQLLIYLASYLESGVPDRFSGSGSGTDFTLKISRVEAEDVGVYYCQHSRDLPLTFGQGTKLEIKR
notes: also called humanized IgG4 version of 09A antibody (409A-H + K09A-L-16)
Kd (hPD-1/Fc (R & D Systems) [3]): 0.0273 nM | koff (hPD-1/Fc (R & D Systems) [3]): 2.72e-05 s⁻¹ | kon (hPD-1/Fc (R & D Systems) [3]): 997000 M⁻¹ s⁻¹ | IC50 [4]: 0.696 nM | Kd [1]: < 0.12 nM | EC50 [5]: 0.063 nM | IC50 [6]: 0.81 nM | IC50 [2]: < 1 nM | EC50 (hPD-1/Fc (R & D Systems) [7]): 0.09 nM

B3: h409A17 (antibody, human IgG4 S228P, kappa, V domains shown)
VH: B1 VH
VL: B2 VL with E1D, L4M, S7T, D74A, V89L
notes: also called humanized IgG4 version of 09A antibody (409A-H + K09A-L-17)
Kd (hPD-1/Fc (R & D Systems) [3]): 0.191 nM | koff (hPD-1/Fc (R & D Systems) [3]): 0.000191 s⁻¹ | kon (hPD-1/Fc (R & D Systems) [3]): 1e+06 M⁻¹ s⁻¹ | IC50 [4]: 0.818 nM | EC50 [5]: 0.083 nM | IC50 [6]: 0.463 nM | IC50 [2]: < 1 nM | EC50 (hPD-1/Fc (R & D Systems) [7]): 0.088 nM

B4: hPD-1.09A (antibody, V domains shown)
VH: QVQLQQPGAELVKPGTSVKLSCKASGYTFTNYYMYWVKQRPGQGLEWIGGINPSNGGTNFNEKFKNKATLTVDSSSSTTYMQLSSLTSEDSAVYYCTRRDYRFDMGFDYWGQGTTLTVSS
VL: DIVLTQSPASLAVSLGQRAAISCRASKGVSTSGYSYLHWYQQKPGQSPKLLIYLASYLESGVPARFSGSGSGTDFTLNIHPVEEEDAATYYCQHSRDLPLTFGTGTKLELK
IC50 [8]: 0.0017 nM | EC50 (hPD-1/Fc (R & D Systems) [9]): 0.123 nM | EC50 [10]: 0.113 nM | fold change in IFNgamma, SEB stimulated blood of patient A (prostate), 25 ug/mL hPD-1.09A vs SEB alone [11]: 1.9 fold | fold change in IFNgamma, SEB stimulated blood of patient B (prostate), 25 ug/mL hPD-1.09A vs SEB alone [11]: 1.2 fold | fold change in IFNgamma, SEB stimulated blood of patient C (prostate), 25 ug/mL hPD-1.09A vs SEB alone [11]: 2 fold | fold change in IFNgamma, SEB stimulated blood of patient D (melanoma), 25 ug/mL hPD-1.09A vs SEB alone [11]: 1.5 fold | fold change in IL-2, SEB stimulated blood of patient A (prostate), 25 ug/mL hPD-1.09A vs SEB alone [11]: 3.4 fold | fold change in IL-2, SEB stimulated blood of patient B (prostate), 25 ug/mL hPD-1.09A vs SEB alone [11]: 2.1 fold | fold change in IL-2, SEB stimulated blood of patient C (prostate), 25 ug/mL hPD-1.09A vs SEB alone [11]: 2 fold | fold change in IL-2, SEB stimulated blood of patient D (melanoma), 25 ug/mL hPD-1.09A vs SEB alone [11]: 2 fold | fold change in IL-5, SEB stimulated blood of patient A (prostate), 25 ug/mL hPD-1.09A vs SEB alone [11]: 0.7 fold | fold change in IL-5, SEB stimulated blood of patient B (prostate), 25 ug/mL hPD-1.09A vs SEB alone [11]: 0.4 fold | fold change in IL-5, SEB stimulated blood of patient C (prostate), 25 ug/mL hPD-1.09A vs SEB alone [11]: 0.9 fold | fold change in IL-5, SEB stimulated blood of patient D (melanoma), 25 ug/mL hPD-1.09A vs SEB alone [11]: 0.4 fold | fold change in IL-6, SEB stimulated blood of patient A (prostate), 25 ug/mL hPD-1.09A vs SEB alone [11]: 2.1 fold | fold change in IL-6, SEB stimulated blood of patient B (prostate), 25 ug/mL hPD-1.09A vs SEB alone [11]: 2.2 fold | fold change in IL-6, SEB stimulated blood of patient C (prostate), 25 ug/mL hPD-1.09A vs SEB alone [11]: 2.4 fold | fold change in IL-6, SEB stimulated blood of patient D (melanoma), 25 ug/mL hPD-1.09A vs SEB alone [11]: 1.9 fold | fold change in IL-13, SEB stimulated blood of patient A (prostate), 25 ug/mL hPD-1.09A vs SEB alone [11]: 0.8 fold | fold change in IL-13, SEB stimulated blood of patient B (prostate), 25 ug/mL hPD-1.09A vs SEB alone [11]: 0.6 fold | fold change in IL-13, SEB stimulated blood of patient C (prostate), 25 ug/mL hPD-1.09A vs SEB alone [11]: 1.1 fold | fold change in IL-13, SEB stimulated blood of patient D (melanoma), 25 ug/mL hPD-1.09A vs SEB alone [11]: 0.5 fold | fold change in IL-17, SEB stimulated blood of patient A (prostate), 25 ug/mL hPD-1.09A vs SEB alone [11]: 1.8 fold | fold change in IL-17, SEB stimulated blood of patient B (prostate), 25 ug/mL hPD-1.09A vs SEB alone [11]: 2.6 fold | fold change in IL-17, SEB stimulated blood of patient C (prostate), 25 ug/mL hPD-1.09A vs SEB alone [11]: 2.4 fold | fold change in IL-17, SEB stimulated blood of patient D (melanoma), 25 ug/mL hPD-1.09A vs SEB alone [11]: 2 fold | fold change in TNFalpha, SEB stimulated blood of patient A (prostate), 25 ug/mL hPD-1.09A vs SEB alone [11]: 2 fold | fold change in TNFalpha, SEB stimulated blood of patient B (prostate), 25 ug/mL hPD-1.09A vs SEB alone [11]: 1.5 fold | fold change in TNFalpha, SEB stimulated blood of patient C (prostate), 25 ug/mL hPD-1.09A vs SEB alone [11]: 2.4 fold | fold change in TNFalpha, SEB stimulated blood of patient D (melanoma), 25 ug/mL hPD-1.09A vs SEB alone [11]: 1.9 fold | IC50 [12]: < 1 nM | IC50 [13]: 0.0009 nM | Kd (hPD-1/Fc (R & D Systems) [14]): 0.022 nM | koff (hPD-1/Fc (R & D Systems) [14]): 3.6e-05 s⁻¹ | kon (hPD-1/Fc (R & D Systems) [14]): 1.64e+06 M⁻¹ s⁻¹ | IC50 (read off the curve) [15]: ~2 nM | binding result [16]: no binding | EC50 (read off the curve) [17]: ~0.1 nM | binding result [18]: binds | IC50 [19]: 0.0008 nM | Kd (hPD-1/Fc (R & D Systems) [20]): 0.02 nM | IC50 (read off the curve) [21]: ~0.8 nM

B5: hPD-1.08A (antibody, V domains shown)
VH: QVQLQQPGAELVKPGASVKLSCKASGYTFTSYYLYWMKQRPGQGLEWIGGVNPSNGGTNFSEKFKSKATLTVDKSSSTAYMQLSSLTSEDSAVYYCTRRDSNYDGGFDYWGQGTTLTVSS
VL: B4 VL with A9T, A20T, G28S, Y34F, S47P, Y53F, Y57N, R96W, D97E, T104A
IC50 [8]: 0.0021 nM | EC50 (hPD-1/Fc (R & D Systems) [9]): 0.076 nM | EC50 [10]: 0.079 nM | IC50 [12]: < 1 nM | IC50 [13]: 0.00073 nM | Kd (hPD-1/Fc (R & D Systems) [14]): 0.0241 nM | koff (hPD-1/Fc (R & D Systems) [14]): 3.03e-05 s⁻¹ | kon (hPD-1/Fc (R & D Systems) [14]): 1.25e+06 M⁻¹ s⁻¹ | IC50 (read off the curve) [15]: ~2 nM | binding result [16]: no binding | EC50 (read off the curve) [17]: ~0.08 nM | binding result [18]: binds | IC50 [19]: 0.0009 nM | IC50 (read off the curve) [21]: ~0.7 nM
